Common to all, as to test: EMSA
Common to all, as to conditions: EMSA: 0.5 nM DNA duplex, 20 uL, 10 mM Tris-HCl pH 7.6, 5 mM DTT, 10% (component cut off in material), no NaCl; temperature not in material

For data set [1], the system named is OGT (wild type) (Escherichia coli).
A further data set deals with C145S hAGT (human).
The test system of data set [2] is S134P OGT (Escherichia coli).

By Kd is commonly meant the free concentration of one partner at which half of the binding sites on the other are occupied at equilibrium, for simple one-to-one binding. A high value points to lower affinity. As to Control (G-C), the Kd in data set [1] worked out at 1230 nM; in the data set on C145S hAGT (human), 10600 nM; in data set [2] it was 860 nM.

The values are drawn from PMC6150290.
